The record followed here is publication PMC7406587, “Improving the production of AHL lactonase AiiO-AIO6 from Ochrobactrum sp. M231 in intracellular protease-deficient Bacillus subtilis” (AMB Express, 2020).

Substrate in the data set: CCCCCC(=O)CC(=O)N[C@H]1CCOC1=O
Briefly: purified protein. To be noted: PBS pH 7.0, 30 °C, 30 min, substrate range printed as 0.249 to 0.870 nM in methods, not consistent with Km in mmol/L, hydrolysis assay used 0.248 mM. Type of data set: biochemical, Ochrobactrum sp. M231.

The Km is the substrate concentration at which the rate is half of its maximum.

B1: AiiO-AIO6 (Ochrobactrum sp. M231) (protein)
chain: MKSHEIETSHGRIAIRESRGNGTPLLMIHGNSSAGAIFAPQLEGEIGRNWRVIAPDLPGHGQSGNALDPDRSYSMEGYADVMTEVLAKLGISDAVVFGWSLGGHIGIEMISRFPGMRGLMITGTPPVAREEVGQGFRSGPDMALAGQEAFSDRDVESYARSTCGEPFEEQLLEIVARTDGRARRIMFEKFAAGTGGNQRDIVAEARLPIAVVNGRDEPFVELDFVSKVRFGNLWEGRTHVIDGAGHAPFRETPAIFDDYLQRFMRDCTA
notes: purified recombinant; expressed from pWB-AIO6BS in Bacillus subtilis 1A751 or protease-deletion derivatives (non-classical secretion, no signal peptide); His tag implied by anti-His Western blot; catalytic triad Ser100, Glu214, His246
Regarding B1, the Km was 415.1 µM and the kcat was found to be 9.34 S^-1.
